# From paper PMC11399405
# B1: IGR1729/1728 and flanking RNA (55 nt) (ssRNA)
# RNA: GCUAGUGCAGAUGCUCCAGUUAAAAAAGAGUAGGAGGUAGAGGAAAUGUCUCAAU
# Assays:
# SPD_1777 = SPD_1777 (Streptococcus pneumoniae D39, UniProt A0A0H2ZNW3 1-317); assay: EMSA
# SPD_1558 = SPD_1558 (Streptococcus pneumoniae D39, UniProt A0A0H2ZMV6 1-103); assay: EMSA
binder,measurement,setting,value
B1,binding result,SPD_1777,binds
same,binding result,SPD_1558,binds
